The source of these data is the nanobody polyreactivity screen of Harvey et al. (2022).

The nature of the data set: yeast display, Sf9 membrane polyspecificity reagent, FACS + sequencing; frameworks hold sequencing errors. Summed up:
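Nanobodies came from a synthetic yeast display library in Saccharomyces cerevisiae BJ5465, induced with galactose for 36–48 hours and stained for 1 hour at 4 °C with 10% biotinylated, detergent-solubilized Sf9 membrane reagent. Cells were enriched on streptavidin microbeads and then FACS-sorted, with low and high (top ~1%) gates set on anti-HA fluorescence for expression and streptavidin fluorescence for reagent binding. Each polyreactivity label reflects the gate a clone came from. Genes were amplified by colony PCR, sequenced by MiSeq 2 × 250 and filtered by CDR length.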
Take “QLQLVESGGGLVQAGGSLRFSCAASGFTFVWYVRGWYRQAPVKARELVASSTSTGSTNYADSVKGRYTISRDNAKNTVYLQMNSLKPEDTAVYYCNARGSYKRTRYGKWGQGTQVTVSS”: the “polyreactivity (PSR sort gate)” value is recorded as “high polyreactivity”.

Turning to “QVQLVESAGGLVQAGGSLRLSCAASGSTFWLYAMGWYRQAPGKERELVAAISYTGTSTYYADSVKGRFTISRDNAKNTVYLQMNSLKPEDTAVYDCAADFVGLVTGYDYSWGQGTQVTVSS”, the “polyreactivity (PSR sort gate)” value is given as “low polyreactivity”.

Consider “QVQLVESGGGLVQAGGSLRLSCAASGGTFDYYAMGWYRQAPGKERELVAAITRGSTNYADSVKGRFTISRDNAKNTVYFQMNSLKPEDTAVYYCAARGRFVTPQPSYDYWGQGTQVTVSS”, for which the “polyreactivity (PSR sort gate)” value is “high polyreactivity”.

As to “QVQLVESGGGLVQAGGSLRLSCAASGRIFYGYAMGWYRQAPGKERELVAAITWSGGRTYYADSVKGRFTISRDNAKNTVYLQMNSLKPEDTAVYYCNRPRRTSPSTYYHWGQGTQVTVSS”, the “polyreactivity (PSR sort gate)” value is reported as “low polyreactivity”.

Regarding “QVQLVESWGGLVQAGGSLRLSCAASGRTIEQYAMGWYRQAPGKERELVAAISGSGGSTFYADSVKGRFTISRDNAKNTVYLQMNSLKPEDTAVYYCNAPGDGYLYDHTYDYWGQGTQVTVSS”, the “polyreactivity (PSR sort gate)” value was “low polyreactivity”.

For “QVQLVESGGGLVQAGGSLRLSCAASGFIFSYYAMGWYRQAPGKERELVAAISGRGGSTYYADSVKGRFTISRDNAKNTVYLQMNSLQPEDTAVYYCAADSPWGGGYFVLYNYWGQGTQVTVSS”, the “polyreactivity (PSR sort gate)” value is given as “low polyreactivity”.

For the sequence “QVQLVESGGGLVQAGGSLRLSCAASGRNFCNYAMGWYIQAPGKERELVAVIRFSDGSTYYADSVKGRFTISRDNAKNTVYLQMNSLKPEDTAVYYCAAKGPRRWGSGFDYWGQGTQVTVSS”, the “polyreactivity (PSR sort gate)” value is “low polyreactivity”.

As for “QVQLVESGGGLVQAGGSLRLSCAASGRIFPGYDMGWYRQAPGKERELVAAISASGGSTYYADSVKGRFTISRDNAKNTVYLQMNSLKPEDTAVYYCNAVYRLIRFDYWGQGTQVTVSS”, the “polyreactivity (PSR sort gate)” value is “high polyreactivity”.

With “QVQLVESGGGLVQAGGSLRLSCAASGIIFGDNGMGWYRQAPGKERELVAVITSGDGTNYADSVKGRFTISRDNANNTFYLQMNSLKPEDTAVYYCAADFRIVVYGWGGSHMDYWGKGTQVTVSS”, the “polyreactivity (PSR sort gate)” value is listed as “low polyreactivity”.

“QVQLVESGGGLDQAGGSLRLSCAASGIIFAANAMGWSRQAPGKERELVAAISKNGGITYYADSVQGRFTISRDNAKNTVDLQRNSLKPEDTAVYYCAARWRQTRSYYYWGQGTQVNVSS”: the “polyreactivity (PSR sort gate)” value was “high polyreactivity”.

Consider “QVQLVESGGALVQAGGSLRLSCAASGRTYRWYAMGWYRQAPGKESELVARIRGSGGSTYADSVKGRFTISRDNAKNTVNLEMNSLTPEDTAVYYCARKVTGRNGAQFYVSYYYWGQGTQVPVSS”, for which the “polyreactivity (PSR sort gate)” value is recorded as “low polyreactivity”.

On to “QVQLVESGGGLVQAGGSLRLSCAASGRIFTFYAMGWYRQAPGKERELVAVITTGTSTTYADSVKGRVTISRDNAKNTVYLQMNSLKPEDTAVYYCAVESWSRVQGWLAHNYDYWGQGTQVTVSS”, for which the “polyreactivity (PSR sort gate)” value is reported as “low polyreactivity”.

As to “QVQLVESGAGLVQAGGSLRLSCAASGRIFLGNAMGWYRQAPGKERELVAAISRSGVTRYYADSVKGRFTISRYNGKNTVYLQMNSLKPEDTAVYYCAVERYDRFDHYYWVQGTQVTVSS”, the “polyreactivity (PSR sort gate)” value is “low polyreactivity”.

“QVQLVESGGGLVQAGGSLRLSCAASGSTFGRNAMGWYRQAPGKERELVAAITASGGTTYYADSVKGRFTISRDNAKNTVFLQMNSLKPEDTSVYYCARAGHFSFKYDYWGQGTQVTVSS”: the “polyreactivity (PSR sort gate)” value is reported as “low polyreactivity”.

In the case of “QVQLVESGGGLVQAGGSLRLSCAASGNISWYNAMGWYRQAPGKERELVAAITSSGSGTYYADSVKGRFTISRDNAKHTVYLQMNSLKPEDTAVYYCIADNAIRYDYWGQGTQVTVSS”, the “polyreactivity (PSR sort gate)” value was “high polyreactivity”.

Consider “QVQLLESGGGLVQAGGSLRLSCAASGRIFYVNAMGWYRQSPGKERELVAGIDDGVTTYYADSVKGRFTISRDNAKNTVYLLMNRLKPEDTAVYYCAAETSTNPEAYEYWGQGTQVTVSS”, for which the “polyreactivity (PSR sort gate)” value is “low polyreactivity”.

Consider “QVQLVESGGGLVQAGGSLRKSCAASGIIFAYYALGCSRQAPGKERELGAAISSDGSTNYADSVKGRFTISRDNAKNSVYLQMNILKPVDTAVYYCAAKAYLYHWFEMYYWGQGTQVTVSS”, for which the “polyreactivity (PSR sort gate)” value is recorded as “high polyreactivity”.

In the case of “QVQLVESGGGLVQAGGSLRLSCAASGRIFGYYAMGWYRQAPGKERELVAAISSSGTSTYYADSVKGRFTISRDNAKNTVYLQMNSLKPEDTAVYYCAAYTYYEGDYWGQGTQVTVSS”, the “polyreactivity (PSR sort gate)” value is reported as “low polyreactivity”.

Consider “QVQLVESGGGLVQAGGSLRLSCAASGGTFSPYDMGWYRQAPGKERELVASITGSGGSTYYADSVKGRFTISRGNAKNTVYLQMNSLKPEDTAVYYCAAQGYCTYWPYLLRLYEYWGHGTQVTVSS”, for which the “polyreactivity (PSR sort gate)” value is on record as “low polyreactivity”.

Take “QVQLVESGGGLVQAGGSLRLSCAASGSIFWLYAMGWYRQAPGKERELVAAIDSGDSTKYADSVKGRFTISRDNAKNTVYLQMNSLKPEDTAVYYCNVRLGDRFFRHDYWGQGTQVTVSS”: the “polyreactivity (PSR sort gate)” value was “low polyreactivity”.

“QVQLVESGGVLVQAGGSLRLTCAASGRTFGHYAMGWYRQAPGKERELVAANTSSAGRTRYADSVKGRFTISRDYAKNTVYLQMNSLKPEDTAVYYCAVAEGYSPAYLRDYWGQGTQVTVSS”: the “polyreactivity (PSR sort gate)” value is listed as “high polyreactivity”.

“QVQLVESGGGLVQAGGSLRLSCAASGSIFHPYTMGWYRQAPGKERELVAGISQSSDSTYYADSVKGRFTISRDNAKNTVYLQMNSLKPEDTAVYYCNRDNDWPLSVVEVDYWGQGTQVTVSS”: the “polyreactivity (PSR sort gate)” value was “low polyreactivity”.

Regarding “QVQLVESGGGLVQSGGSLRLSCAASGRIFVYYAMGWYIQAPGKEMELVAAIDGSDGTTYYADSVKGRFTISRDNAKNTVYLQMNSLKPEDTSVYYCAKDNSLPDYDYWGQGTQVTVSS”, the “polyreactivity (PSR sort gate)” value is on record as “low polyreactivity”.

“QVQLVESGGGLVQAGGSLRLSFAASGSIFYYYAMGWYRQAPGKERELVAAINYSGGSTYADSVKGRFTISLDNAKNTVYLQMNSLKPEDTAVYYCATRLYGYWPYGFEYWGQGTQVTVSS”: the “polyreactivity (PSR sort gate)” value is recorded as “low polyreactivity”.

Consider “QDQLVESGGGLVQAGGSLRLSCAASGRTLVGNAMGLYRQAHGKERELVAAISLSDDITYYADSVKGRFTISRDNAKKTFYLQMNSLKPEDTAVYYCAAVYPGDSDFLGSYEESDSWGQGTQVTVSS”, for which the “polyreactivity (PSR sort gate)” value is on record as “low polyreactivity”.

Consider “QVQLVESGGGLVQAGGSLRLSCAASGFTFPGNAMGWYRQAPGKEREFVAAITRSSGSTSYADSVKGRFTISRDNAKNTVYLQMNSLKPEDTAVYRDYWGQGTQVTVSS”, for which the “polyreactivity (PSR sort gate)” value is listed as “low polyreactivity”.

On to “QVQLVESGGGLVQAGGSLRLSCAASGNTFDYYAMGWYRQAPGKERELVAAITRGGSTNYADSVKGRFTISRDNAKNTVSLQMNSLKPEDTAVYYCAAEQRAPRFADYDYWGQGTQVTVSS”, for which the “polyreactivity (PSR sort gate)” value was “low polyreactivity”.

For “QVQLVESGVGIVQAGGSLRLICAASGSTFTIYAMGWYRQAPGKERELVAAITWNGGSTYYADSVKGRFTISRDNAKKTVYLQMNSLKPEDTAVYYCAAKFRYQYVRVAREYYYWGQGTQVTVSS”, the “polyreactivity (PSR sort gate)” value is given as “high polyreactivity”.

As to “QVQLVESGGGLVQAGGSLRLSCAASGRINYFYAIVWSRQAPGKEQELVAAISTSGGSTYYADCVKGRFTISRDNAKNTLYLQMNSLTPEETAVYDCAARFRYYGSEYDYWGQGTQVTVSS”, the “polyreactivity (PSR sort gate)” value is “low polyreactivity”.

Turning to “QVQLVESGGGLVQAGGILRLSCDASGRIFYSYAMGWYRQAHGKERVLVAAIDESVGSKYYADSVKGRFTISRDNAKNTVYLHMNSLKREDTAVYYCAADYLLVLFYYWGQGTQVTVSS”, the “polyreactivity (PSR sort gate)” value is listed as “low polyreactivity”.
